# Tests used:
# biotinylated hBLyS-ECD [1] = molecular target: T1, biotinylated hBLyS-ECD (human, UniProt Q9Y275 134-285, biotinylated with Biotin-X-X-NHS (molar ratio 7:1), sites not stated); experiment: ELISA: biotinylated hBLyS-ECD captured on streptavidin, antibody titrated, HRP secondary antibody
# T1 construct: The hBLyS-ECD of Embodiment 1 after biotinylation (Embodiment 2); also called biotinylated immunogen; BLyS protein; not shown: His tag of the pCPC vector
# biotinylated hBLyS-ECD [2] = molecular target: T2, biotinylated hBLyS-ECD (human, UniProt Q9Y275 134-285, biotinylated with Biotin-X-X-NHS (molar ratio 7:1); sites not stated); experiment: competition ELISA; competitor 93C6F10D3
# T2 construct: also called biotinylated immunogen; biotinylated hBLvS-ECD
# Experimental: (§1) The purified human BLyS antibody and hybridoma antibody were subjected to competitive enzyme-linked immunosorbent assay and the epitopes binding by different antibodies were analyzed.
# (§2) Purified BLyS antibody was first diluted to a final concentration of 1.0 μg/mL with PBS, then aliquoted into a 96-well ELISA plate at 50 μL per well, and the plate was subsequently sealed with plastic film and incubated at 4° C. overnight. On the next day the plate was rinsed four times with the plate washing buffer [PBS buffer containing 0.05% (v/v) Tween20] and mixed with blocking solution [PBS buffer containing 0.05% (v/v) Tween20 and 1% (w/w) BSA], and then blocked at 37° C. for 1 hour. The blocking solution was removed, and the competitive antibody and IgG control were diluted to a final concentration of 40 μg/mL with PBS and then aliquoted into the 96-well ELISA plate at 50 μL per well. The biotinylated hBLyS-ECD was then diluted with PBS to a final concentration of 2 ng/mL and pipetted into the 96-well ELISA plate at 50 μL per well. The final concentration of competitive antibody and hBLyS-ECD was 20 μg/mL and 1 ng/mL, respectively. After incubation at 37° C. for 1 hour, the plate was rinsed four times with the plate washing buffer [PBS buffer containing 0.05% (v/v) Tween20]. 100 μL per well of HRP-labeled (horseradish peroxidase) streptavidin (purchased from Sigma) was added into the plate and the plate was incubated at 37° C. for 1 hour. The plate was then washed four times with the plate washing buffer [PBS buffer containing 0.05% (v/v) Tween20]. 100 μL of TMB substrate was aliquoted into each well and after incubation at room temperature for 5 minutes, 100 μL of stop solution (1.0 N HCl) was aliquoted into each well. A₄₅₀ₙₘ values were read by an ELISA plate reader (SpectraMax M5e, purchased from Molecular Device) and the results were shown in Tables 18A-18B. […] The data shown in the table is the inhibitory rate (%) of the binding level of the original antibody to hBLyS-ECD after addition of the competitive antibody.
# biotinylated hBLyS-ECD [3] = molecular target: T2, biotinylated hBLyS-ECD; experiment: competition ELISA; competitor 8E7D9C7F5
# Experimental: as §1, §2
# biotinylated hBLyS-ECD [4] = molecular target: T2, biotinylated hBLyS-ECD; experiment: competition ELISA; competitor 97A3C2H4
# Experimental: as §1, §2
# biotinylated hBLyS-ECD [5] = molecular target: T2, biotinylated hBLyS-ECD; experiment: competition ELISA; competitor 78C11D2D12
# Experimental: as §1, §2
# biotinylated hBLyS-ECD [6] = molecular target: T2, biotinylated hBLyS-ECD; experiment: competition ELISA; competitor 35E6F7C3
# Experimental: as §1, §2
# biotinylated hBLyS-ECD [7] = molecular target: T2, biotinylated hBLyS-ECD; experiment: competition ELISA; competitor 111D10D6G3
# Experimental: as §1, §2
# biotinylated hBLyS-ECD [8] = molecular target: T2, biotinylated hBLyS-ECD; experiment: competition ELISA; competitor 67A2E1D10
# Experimental: as §1, §2
# [9] = molecular target: extracellular domain of human BLyS protein (hBLyS-ECD), His-tagged, Ala134-Leu285 (human, UniProt Q9Y275 134-285); experiment: cell-based or functional assay
EC50 (read off the curve) (biotinylated hBLyS-ECD [1]) [nM],inhibitory rate (%) (biotinylated hBLyS-ECD [2]),inhibitory rate (%) (biotinylated hBLyS-ECD [3]),inhibitory rate (%) (biotinylated hBLyS-ECD [4]),inhibitory rate (%) (biotinylated hBLyS-ECD [5]),inhibitory rate (%) (biotinylated hBLyS-ECD [6]),inhibitory rate (%) (biotinylated hBLyS-ECD [7]),inhibitory rate (%) (biotinylated hBLyS-ECD [8]),"Proportion of B lymphocytes in splenocytes (%), in vivo in mice [9] [%]",Binder
~0.1,,,,,,,,,"c67A2E1D10 (antibody, human IgG1, V domains shown, also called BLyS chimeric antibody) VH: EVQLQQSGAELVKPGASVKLSCTASGFNIKNYYMHWVKQRTEEGLEWIGRIDPEDGETKYAPKFQAKATITADTSSNTAYLQLSSLTSEDTAVYFCARKGYYGNYGAWFAYWGQGTLVTVSA VL: DIQMTQSPASLSVSVGETVTITCRASEDLYSNLAWYQQKQGKSPQLLVYAATFLADGVPSRFSGSGSGTQYSLKINSLQSEDFGNYYCQHFWGTPPTFGGGTKLEIK"
,44,63,75,80,18,86,93,,"67A2E1D10 (antibody, V domains shown, Mouse hybridoma antibody purified on Protein G) VH: EVQLQQSGAELVKPGASVKLSCTASGFNIKNYYMHWVKQRTEEGLEWIGRIDPEDGETKYAPKFQAKATITADTSSNTAYLQLSSLTSEDTAVYFCARKGYYGNYGAWFAYWGQGTLVTVSA VL: DIQMTQSPASLSVSVGETVTITCRASEDLYSNLAWYQQKQGKSPQLLVYAATFLADGVPSRFSGSGSGTQYSLKINSLQSEDFGNYYCQHFWGTPPTFGGGTKLEIK"
,,,,,,,,26.8,"L1D12 (antibody, V domains shown) VH: QVQLVQSGGGLVQPGGSLRLSCAASGFTVSSNYMSWVRQAPGKGLEWVSVIYSGGSTYYADSVKGRFTISRDNSKNTLYLQMNSLRAEDTAVYYCARGFHDILTGYGMDVWGQGTTVTVSS VL: SSELTQDPAVSVALGQTVRITCQGDSLRNYYAGWYQQKPGQAPVLVIYGKNNRPSGIPDRFSGSSSGNTASLTITGTQAEDEADYYCSSRDNSGTHLVEFGGGTKLTVL"
,41,27,26,86,22,95,96,,"111D10D6G3 (antibody, V domains shown, Mouse hybridoma antibody purified on Protein G) VH: QVQLQQPGAELVKPGASVKMSCKASGYTFTRHWITWVKQRPGQGLEWIGDIFPGSGSINYNEKFKSEATLTVEKSSSTAYMQLSSLTSEDSAVYYCARGDVDVWGTGTTVTVSS VL: DIQMTQSPSSLSASLGERVSLTCRASQEIRGYLSWLQQKPNGTIKRLIYAASTLDSGVPKRFSATRSGSDFSLTISSLESEDFADYYCLQYASYPFTFGSGTKLEIK"
,93,93,89,96,55,93,96,,"97A3C2H4 (antibody, V domains shown, Mouse hybridoma antibody purified on Protein G) VH: EVKLVESGGGLVQPGGSLKLSCAASGFTFSTYTMSWVRQTPEKRLEWVAYISYGGGSTSYPDTVKGRFTISRDNAKNTLYLQMSSLKSEDTAIYYCTRHVTVVENSMDYWGQGTSVTVSS VL: DILLTQSPDILSVSPGERVSFSCRASQSIGTSIHWYQQRTNGSPRLLIKYVSESFSGTPSRFSGSGSGTAFTLTINSVESEDIADYYCQQTHSWPWTFGGGTKLEIK"
,33,27,26,36,91,38,33,,"35E6F7C3 (antibody, V domains shown, Mouse hybridoma antibody purified on Protein G) VH: EVQLQQSGAELVKPGASVKLSCTAAGFNIQDTYIHWVKQRPEQGLEWIGRIDPANANTVYDPKFQGKATITADTSSNTAYLQVSSLTSEDTAVYYCASPVITAGFAYWGQGTLVTVSA VL: QIVLTQSPAIMSASPGEKVTMTCGASSSVNYVHWYQQKSGTSPKRWIYDTSKLASGVPARFSGSGSGTSYSLTISSMEAEDAATYYCQQWTRSPLTFGAGTKVELK"
~0.07,,,,,,,,,"c93C6F10D3 (antibody, human IgG1, V domains shown, also called BLyS chimeric antibody) VH: EVQLVESGGGLVTPGGSLKLSCVASGFAFSTYGMSWVRQTPERRLEWVAYISGGGGSIYYPDSVKGRFTISRDNAKNILYLQMSSLKSEDTAMYHCTRHPDLLLRYDYALDHWGQGTSVTVSS VL: DIQMTQSPASLSASVGETVTITCRASENIHIYLAWYQQKQGKSPQLLVYNGKTLADGVPSRFSGSGSGTQYSLKINTLQPEDFGNYYCQHFWNSTWTFGGGTKLEIK"
,79,94,90,92,42,95,97,,"93C6F10D3 (antibody, V domains shown, Mouse hybridoma antibody purified on Protein G) VH: EVQLVESGGGLVTPGGSLKLSCVASGFAFSTYGMSWVRQTPERRLEWVAYISGGGGSIYYPDSVKGRFTISRDNAKNILYLQMSSLKSEDTAMYHCTRHPDLLLRYDYALDHWGQGTSVTVSS VL: DIQMTQSPASLSASVGETVTITCRASENIHIYLAWYQQKQGKSPQLLVYNGKTLADGVPSRFSGSGSGTQYSLKINTLQPEDFGNYYCQHFWNSTWTFGGGTKLEIK"
,58,37,46,88,29,95,95,,"78C11D2D12 (antibody, V domains shown, Mouse hybridoma antibody purified on Protein G) VH: QVQLQQSGAELVRPGTSVKISCKASGYAFTNYWLGWVKQRPGHGLEWIGDIYPGSGNTYYNEKFKGKATLTADKSSSTAYMQLSSLTSEDSAVFFCAAYLYAMDYWGQGTSVTVSS VL: QIVLTQSPAIMSASPGEKVTITCSASSSVSYMHWFQQKPGTSPKLWIYSASNLASGVPARFSGSGSGTSYSLTISRMEAEDAATYYCQQRGSYPFTFGSGTKLEIK"
,85,92,89,94,40,96,96,,"8E7D9C7F5 (antibody, V domains shown, Mouse hybridoma antibody purified on Protein G) VH: QVQLQQSGVELARPGASVKLSCKASGYTFTSYGISWVKQRTGQALEWIGEIYPRSGNTYYNEKFKGKATLTADKSSSTAYMELRSLTSEDSAVYFCARSGPITTLVATDYGMDYWGQGTSVTVSS VL: DIVLTQSPASLAVSLGQRATISCRASKSVSTSSYSYMHWYQQKPGQPPKLLIKFASNLESGVPARFSGSGSGTDFTLNIHPVEEEDAATYYCQHSREFPYTFGGGTKLEIK"
